Drawing on publication PMC4570336, this text covers binding signal (ohm (impedance increase)), Kd and binding signal for two sequences.

Read-outs that look alike come from different tables or passages of the source.

Data set [1] deals with Inactivated H5N1 avian influenza virus (whole virion) (Avian influenza virus H5N1 (Scotland/59)).
For data set [2] the test system is unchanged. Briefly: SPR. To be noted: 5'-biotin; cited from earlier work.
Data set [3] concerns Inactivated H7N2 avian influenza virus (whole virion) (Avian influenza virus H7N2 (strain not stated)). To be noted: 5'-biotin; scale: ohm.
The subject of data set [4] is Inactivated H2N2 influenza virus (whole virion) (Avian influenza virus H2N2 (strain not stated)). To be noted: 5'-biotin; scale: ohm.
The subject of data set [5] is Inactivated H1N1 influenza virus (whole virion) (Avian influenza virus H1N1 (strain not stated)). To be noted: 5'-biotin; scale: ohm.

“CCGAATTCGAAGGACAAGAGGCGAAAAGATTTAAAGTAATCAAAGACTGAGCAACTCTTATCTTTTATGCTACGTCCCGC [control sequence (non-target aptamer)]” showed a binding signal (ohm (impedance increase)) in data set [1] of 282.
In data set [1] (5'-biotin), “GTGTGCATGGATAGCACGTAACGGTGTAGTAGATACGTGCGGGTAGGAAGAAAGGGAAATAGTTGTCCTGTTG [H5N1 aptamer]” registered a binding signal (ohm (impedance increase)) of 61000. The Kd in data set [2] was 4.65 nM. In addition, the binding signal in data set [3], in data set [4] and in data set [5] was -2000 in each case.
